Target: Taxol-stabilized microtubules from bovine tubulin, labeled with Alexa Fluor 488 and biotin, tethered to a … (bovine, UniProt Q6B856 1-445, part of the tubulin biotinylated, part labeled with Alexa Fluor 488 (10% biotin-tubulin and 10% Alexa 488-tubulin) | part of the tubulin biotinylated, part labeled with Alexa Fluor 488 (10% …))
Sequence (chain, as listed by the source, chain 1 of 2): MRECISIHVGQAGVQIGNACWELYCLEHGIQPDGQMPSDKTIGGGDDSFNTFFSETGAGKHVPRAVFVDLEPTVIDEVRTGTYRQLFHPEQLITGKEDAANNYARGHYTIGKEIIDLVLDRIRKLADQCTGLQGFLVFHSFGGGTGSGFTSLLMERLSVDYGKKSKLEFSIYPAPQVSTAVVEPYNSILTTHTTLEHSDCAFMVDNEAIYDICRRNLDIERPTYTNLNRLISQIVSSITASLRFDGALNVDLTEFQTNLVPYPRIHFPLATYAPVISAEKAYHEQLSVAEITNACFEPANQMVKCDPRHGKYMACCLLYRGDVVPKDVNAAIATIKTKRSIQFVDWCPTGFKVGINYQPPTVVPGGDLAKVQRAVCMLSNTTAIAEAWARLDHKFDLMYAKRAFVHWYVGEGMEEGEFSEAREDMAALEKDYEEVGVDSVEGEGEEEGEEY
Sequence (Q6B856 whole entry, chain 2 of 2): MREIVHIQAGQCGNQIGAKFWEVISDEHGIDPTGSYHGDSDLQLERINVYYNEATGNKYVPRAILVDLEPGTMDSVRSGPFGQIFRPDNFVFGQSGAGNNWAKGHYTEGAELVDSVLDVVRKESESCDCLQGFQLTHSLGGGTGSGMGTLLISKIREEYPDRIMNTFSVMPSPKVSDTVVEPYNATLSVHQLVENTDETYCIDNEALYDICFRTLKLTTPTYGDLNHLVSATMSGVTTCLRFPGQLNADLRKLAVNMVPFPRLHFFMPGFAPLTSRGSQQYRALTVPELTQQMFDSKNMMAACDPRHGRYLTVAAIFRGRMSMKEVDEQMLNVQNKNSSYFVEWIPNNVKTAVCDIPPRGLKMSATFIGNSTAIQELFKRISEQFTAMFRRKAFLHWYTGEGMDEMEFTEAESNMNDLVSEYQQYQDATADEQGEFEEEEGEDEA

Kd: ~40 nM
B1: TMR-LRRK2^RCKW (LRRK2^RCKW randomly labeled with BODIPY TMR-X) (domain or fragment)
chain: KKAVPYNRMKLMIVGNTGSGKTTLLQQLMKTKKSDLGMQSATVGIDVKDWPIQIRDKRKRDLVLNVWDFAGREEFYSTHPHFMTQRALYLAVYDLSKGQAEVDAMKPWLFNIKARASSSPVILVGTHLDVSDEKQRKACMSKITKELLNKRGFPAIRDYHFVNATEESDALAKLRKTIINESLNFKIRDQLVVGQLIPDCYVELEKIILSERKNVPIEFPVIDRKRLLQLVRENQLQLDENELPHAVHFLNESGVLLHFQDPALQLSDLYFVEPKWLCKIMAQILTVKVEGCPKHPKGIISRRDVEKFLSKKRKFPKNYMSQYFKLLEKFQIALPIGEEYLLVPSSLSDHRPVIELPHCENSEIIIRLYEMPYFPMGFWSRLINRLLEISPYMLSGRERALRPNRMYWRQGIYLNWSPEAYCLVGSEVLDNHPESFLKITVPSCRKGCILLGQVVDHIDSLMEEWFPGLLEIDICGEGETLLKKWALYSFNDGEEHQKILLDDLMKKAEEGDLLVNPDQPRLTIPISQIAPDLILADLPRNIMLNNDELEFEQAPEFLLGDGSFGSVYRAAYEGEEVAVKIFNKHTSLRLLRQELVVLCHLHHPSLISLLAAGIRPRMLVMELASKGSLDRLLQQDKASLTRTLQHRIALHVADGLRYLHSAMIIYRDLKPHNVLLFTLYPNAAIIAKIADYGIAQYCCRMGIKTSEGTPGFRAPEVARGNVIYNQQADVYSFGLLLYDILTTGGRIVEGLKFPNEFDELEIQGKLPDPVKEYGCAPWPMVEKLIKQCLKENPQERPTSAQVFDILNSAELVCLTRRILLPKNVIVECMVATHHNSRNASIWLGCGHTDRGQLSFLDLNTEGYTSEEVADSRILCLALVHLPVEKESWIVSGTQSGTLLVINTEDGKKRHTLEKMTDSVTCLYCNSFSKQSKQKNFLLVGTADGKLAIFEDKTVKLKGAAPLKILNIGNVSTPLMCLSESTNSTERNVMWGGCGTKIFSFSNDFTIQKLIETRTSQLFSYAAFSDSNIITVVVDTALYIAKQNSPVVEVWDKKTEKLCGLIDCVHFLREVMVKENKESKHKMSYSGRVKTLCLQKNTALWIGTGGGHILLLDLSTRRLIRVIYNFCNSVRVMMTAQLGSLKNVMLVLGYNRKNTEGTQKQKEIQSCLTVWDINLPHEVQNLEKHIEVRKELAEKMRRTSVE
modifications: BODIPY TMR-X on primary amines, randomly labeled (dye added 1:1)
